Substitutions are numbered along the chain they refer to.
T1: human TG2 (Homo sapiens, UniProt P21980)
T1 sequence (P21980 1-687): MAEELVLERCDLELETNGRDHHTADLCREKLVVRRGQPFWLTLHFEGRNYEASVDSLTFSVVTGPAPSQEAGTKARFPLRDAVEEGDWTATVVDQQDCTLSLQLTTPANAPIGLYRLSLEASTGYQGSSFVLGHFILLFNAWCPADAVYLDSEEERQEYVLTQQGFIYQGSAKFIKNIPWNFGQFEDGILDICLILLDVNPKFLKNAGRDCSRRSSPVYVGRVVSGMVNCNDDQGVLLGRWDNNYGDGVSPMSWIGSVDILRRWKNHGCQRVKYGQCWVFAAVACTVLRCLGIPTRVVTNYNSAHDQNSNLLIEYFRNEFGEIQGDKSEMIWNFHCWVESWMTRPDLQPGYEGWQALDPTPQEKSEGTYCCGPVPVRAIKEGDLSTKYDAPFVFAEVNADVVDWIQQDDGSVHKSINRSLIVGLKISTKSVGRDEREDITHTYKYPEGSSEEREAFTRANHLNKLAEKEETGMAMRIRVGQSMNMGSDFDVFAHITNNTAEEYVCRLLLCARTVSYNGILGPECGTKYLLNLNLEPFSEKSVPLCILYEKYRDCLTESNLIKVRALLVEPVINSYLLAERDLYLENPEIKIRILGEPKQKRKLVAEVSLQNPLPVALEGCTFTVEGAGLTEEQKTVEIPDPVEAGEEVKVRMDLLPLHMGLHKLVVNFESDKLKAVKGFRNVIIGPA

T2: TG2 activity in HepG2 cell homogenate (Homo sapiens, UniProt P21980)
T2 construct: endogenous in cells; host or cells: HepG2
T2 sequence (P21980 1-687): T1 sequence (P21980 1-687)

T3: extracellular TG2 in human HK-2 cells (Homo sapiens, UniProt P21980)
T3 construct: endogenous in cells; host or cells: HK-2 (kidney proximal tubular epithelium)
T3 sequence (P21980 1-687): T1 sequence (P21980 1-687)

B1: EH6: murine monoclonal anti-TG2 IgG, Group 1; VH and VK in FIG. 22 (antibody, V domains shown)
VH: EVQLQQSGPELVKPGASVKMSCKASGYTFTSYVMHWVKQKPGQGLEWIGFINPYNDGTKYNEKFKGKATLTSDKASTTAYMELSSLTSEDSAVYYCARFSSGYWGQGTTLTVSS
VL: DVLMTQTPLSLPVSLGDQASISCRSSQSIVHSNGNTYLEWYLQKPGQSPKLLIYKVSNRFSGVPDRFSGSGSGTDFTLKISRVGAEDLGVYYCLQVSHVPFTFGSGTKLEIK
B2: AH3: murine TG2 inhibitory monoclonal antibody; VH and VK in FIG. 24 (antibody, V domains shown)
VH: B1 VH with K23R, S31T, M34I, F50Y, T58A, K59R, A75S, F99L, G102D
VL: B1 VL with T7N, Q27R, V30E, L51F, K79R, R82S, G84E, L94F, V96G, S105G
B3: AG9: murine TG2 inhibitory monoclonal antibody; VH and VK in FIG. 23 (antibody, V domains shown)
VH: B1 VH with K23R, S31T, M34I, F50Y, T58A, K59R, A75S, F99L, G102D
VL: B1 VL with T7N, Q27R, V30E, L51F, K79R, R82S, G84E, L94F, V96G, S105G
B4: JE12: murine monoclonal anti-TG2 IgG, Group 1; VH and VK in FIG. 21 (antibody, V domains shown)
VH: B1 VH with T28R, P41S, F50Y, T58A, A75S, T77S, F99L, G102D
VL: B1 VL with T7N, V30E, S32I, L51F, K79R, G84E, V90I, L94F, V96G, S105G
B5: BB7: murine monoclonal anti-TG2 IgG, Group 1; VL SEQ ID NO: 60, VH SEQ ID NO: 61 (antibody, V domains shown)
VH: AVQLVESGGGLVKPGGSLKLSCAASGIIFSSSAMSWVRQTPEKRLEWVATISSGGRSTYYPDSVKGRFTVSRDSAKNTLYLQMDSLRSEDTAIYYCAKLISPYWGQGTTLTVSS
VL: AIKMTQSPSSMYASLGERVIITCKASQDINSYLTWFQQKPGKSPKTLIYLTNRLMDGVPSRFSGSGSGQEFLLTISGLEHEDMGIYYCLQYVDFPYTFGGGTKLEIK
modifications: BB-7 heavy chain variable region; BB-7 light chain variable region
B6: DC1: murine monoclonal anti-TG2 IgG, Group 1; VL SEQ ID NO: 70, VH SEQ ID NO: 71 (antibody, V domains shown)
VH: EVQLVESGGGLVKPGGSLKLSCAASGFTLSTHAMSWVRQTPEKRLEWVATISSGGRSTYYPDSVKGRFTISRDNVKNTLYLQLSSLRSEDTAVYFCARLISTYWGQGTTLTVSS
VL: DITMTQSPSSIYASLGERVTITCKASQDINSYLTWFQQKPGKSPKILIYLVNRLVDGVPSRFSGSGSGQDYALTISSLEYEDMGIYYCLQYDDFPYTFGGGTKLEIK
modifications: DC-1 heavy chain variable region; DC-1 light chain variable region

Key:
human TG2 = target: T1, human TG2; experiment: 3H-putrescine incorporation TG activity assay with recombinant human TG2; format: biochemical; conditions: for hybridoma supernatant ability to inhibit TG2 activity: initial screen of conditioned medium, 100 ng of TG2
Description: To determine an IC50 value for each antibody against human, rat and mouse the ^3H Putrescine assay was used. 100 ng of human TG2 or 25 ng of mouse and rat TG2 was used to generate a reaction where approximately 3000 cpm of Putrescine were incorporated per hour in 10 ul of the reaction mixture. Serial dilutions of each antibody were then applied starting from adding 500 ng (5 ug/ml final concentration) to the reaction mixture and incubated with the TG2 for 20 minutes prior to activating the reaction. IC50 values were calculated by determining the concentration at which the enzymatic rate of reaction was reduced by 50% using an appropriate curve fit in graphpad prism. Values are expressed as the amount of IgG in […] in the reaction that would inhibit 1 ng of TG2.
TG activity is measured by the Ca^2+ dependent incorporation of ^3H-putrescine into N′,N′-dimethylcasein. Recombinant human TG2 (100 ng) was pre-incubated for twenty minutes at room temperature with the test sample (conditioned medium or purified IgG) before starting the reaction. Twenty-five μl of reaction mix (5 μl of 25 mM CaCl2, 5 μl of 40 mM dithiothreitol, 5 μl ^3H-putrescine mix, and 10 μl 25 mg/ml of N,N′ dimethylcasein (replace 25 mM CaCl2 with 100 mM EDTA for a non-enzymatic control) was added to start the reaction and the samples incubated at 37° C. for up to 1 hour. Aliquots of 10 μl were spotted onto a strip of 3 MM Whatman filter paper and plunged immediately into ice-cold 10% trichloroacetic acid (TCA) in order to precipitate the cross-linked proteins typically at time 0, 10, 30 and 60 minutes into the reaction. After three extensive washes in ice-cold 5% TCA followed by 3 rinses with ice-cold 95% ethanol, the air dried filter was counted in 2 ml of scintillation fluid (Ultima Gold Packard, Perkin Elmer). The rate of reaction was calculated. 1 TG unit is equivalent to the incorporation of 1 nmol of putrescine per hour at 37° C.

[1] = target: T2, TG2 activity in HepG2 cell homogenate; experiment: 3H putrescine incorporation TG activity assay in HepG2 cell homogenate; format: biochemical
Description: A: Hep2G cells were lysed and 45 ug of protein mixed with 750 ng of IgG from AB1, DH2, DD9, BB7, DC1 and EH6 for 20 minutes. This was subsequently assayed using the ^3H Putrescine incorporation TG activity assay with sampling over 1 hour. The rate of reaction was calculated and expressed as a percentage of the same lysate incubated with a random antibody (MAB002). Data represents the mean percentage inhibition ±SEM from 2 separate experiments done in duplicate. *p<0.05
HepG2 cells were kindly supplied by Richard Ross (University of Sheffield). Cells were routinely grown at 37° C. in a 95% humidified atmosphere of 5% CO2 in DMEM/4.5 g per liter glucose supplemented with 10% foetal calf serum (FCS), 100 IU penicillin and 100 μg/ml streptomycin, 2 mM I-glutamine (all GIBCO). Two million cells were seeded on a 10 cm dishes and grown for 48 hours. Cells were lysed in 250 μl of STE buffer (0.32M sucrose, 5 mM Tris, 1 mM EDTA containing protease inhibitors Phenylmethylsulphonyl fluoride (1 mM), benzamidine (5 mM), and leupeptin (10 μg/ml) and sonicated on ice to produce a cell lysate usable in TG2 activity assay.
The same protocol was used to assess TG inhibition in cell lysates by replacing the 25 μl of recombinant protein with 25 μl of cell lysate.

[2] = target: T3, extracellular TG2 in human HK-2 cells; experiment: Extracellular TG activity in HK-2 cells, biotin cadaverine incorporation into fibronectin (Example 1); format: cell-based
Description: HK2 cells were plated onto fibronectin and incubated for 2 hours in the presence of 0.1M biotin cadaverine with either 4 ng/μl of human anti-TG2 antibody (AB1) (part A), 4 ng/μl of human anti-TG2 antibody (DC1) (part B) or 400 μM of the site-specific pan TG inhibitor 1,3-Dimethyl-2-[(2-oxo-propyl)thio]imidazolium chloride. […] Changes in optical density were measured at 450 nm in a 96 well plate reader. Data represents mean OD at 450 nm corrected to 1 mg of cell protein. n=6 wells per experimental group.
Extracellular TG activity was measured by modified cell ELISA. HK-2 epithelial cells were harvested using 0.1M EDTA or 0.25% trypsin/EDTA and plated at a density of 8×10^4 cells/well in serum free medium onto a 96 well plate that had been coated overnight with 100 μl/well of fibronectin (5 μg/ml in 50 mM Tris-HCl pH 7.4) (Sigma, Poole UK). Cells were allowed to attach for 2.5 h at 37° C. in the presence of the 0.1 mM biotin cadaverine [N-(5 amino pentyl biotinamide) trifluoroacetic acid] (Molecular Probes, Eugene Oreg., USA). Plates were washed twice with 3 mM EDTA/PBS and cells removed with 0.1% (w/v) deoxycholate in 5 mM EDTA/PBS. The supernatant was collected and used for protein determination. […] The reaction was stopped with 50 μl 2.5 M H2SO4 and the absorbance read at 450 nm.

| Molecule | hybridoma supernatant ability to inhibit TG2 activity (human TG2) | other results |
| --- | --- | --- |
| B1 | able to inhibit TG2 activity | – |
| B2 | able to inhibit TG2 activity | – |
| B3 | able to inhibit TG2 activity | – |
| B4 | able to inhibit TG2 activity | – |
| B5 | able to inhibit TG2 activity | inhibition of TG2 activity in HepG2 homogenate ([1]; 0.5 μg of antibody, 45 ug lysate protein): 90% |
| B6 | able to inhibit TG2 activity | inhibition of extracellular TG activity ([2]; 4 ng/ul in the culture media): 55%; inhibition of extracellular TG2 in human HK-2 cells (in words) ([2]; applied to the culture media): able to inhibit TG2 successfully; inhibition of TG2 in human Hep2G cells (in words) [1]: able to inhibit TG2 successfully; IC50 against human TG2 (human TG2; amount of IgG in the reaction that would inhibit 1 ng of TG2, 100 ng human TG2): 11 ng/mL |

From US10005846B2, “Anti-transglutaminase 2 antibodies” (MEDICAL RESEARCH COUNCIL TECHNOLOGY, priority 2012, dated 2018)
